# Measurements from the nanobody polyreactivity screen of Harvey et al. (2022).
# Assay: yeast display, Sf9 membrane polyspecificity reagent, FACS + sequencing; frameworks hold sequencing errors
# Method in brief: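 Genes from sorted yeast were amplified by colony PCR, read by MiSeq 2 × 250 sequencing and filtered on CDR length. These cells carried a synthetic nanobody library in Saccharomyces cerevisiae BJ5465 and were sorted by FACS into low and high (top ~1%) gates on anti-HA and streptavidin fluorescence. Polyreactivity is labelled according to the gate of origin.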
row,Sequence,polyreactivity (PSR sort gate)
1,QVQLVESGGGLVQAGGSLPLSCAASGRIYGGNVMGWYRQAPGKERELVAAISKRGDSTYYADSVKGRFTISRDNAKNTVYLQMNSLKPEDTAVYYCAAVRRGDRGTDMDYWGQGTQVTVSS,high polyreactivity
2,QVQLVESGGGLVQAGGSLPLSCAASGRTFGENAMGWYRQAPGKERELVAAITSGARTYYADSVKGRFTISRDNAKNTVYLQMNSLKPEDTAVYYCAKAYRRFSGGAGKQGGYYWGQGTQVTVSS,high polyreactivity
3,QVQLVESGGGLVQAGGSLPLSCAASGRTFPVYAMGWYRQAPGKERELVARINSGGRTTDADSVKGRFTISRDNAKNTVYLPKNSLKPEDSAVYYCNADSTYFRFDYWGQGTQVTVSS,high polyreactivity
4,QVQLVESGGGLVQAGGSLPLSCAASGRTFWDNAMGWYRQAPGKERELVATITSGDSTNYADSVKWRFTISRDNAKNTVYLQMNSLKPEDTAVYDCARVIVFDAYEFDYWGQGTQVTVSS,low polyreactivity
5,QVQLVESGGGLVQAGGSLPLSCAASGRTINTNAMGWSRQAPGKERELVAAISGGGSTYADSVKGRFTISRDNAKNTVYLQMNSLKPEDTAVYYCAAQNVWIYGFWRDYWGQGTQVTVSS,low polyreactivity
6,QVQLVESGGGLVQAGGSLPLSCAASGSTFAVYAMGWYRQAPGKERELVAAISFSGSTYADSVKGRFTISRDNAKNTVYLQMNSLKPEDTAVYYCAKEYRVFGWWYTKGDYWGQGTQVTVSS,low polyreactivity
7,QVQLVESGGGLVQAGGSLPLSCAASGSTFLAYAMGWYRQAPGKERELVAAITWNSGSSTFYADSVKGRFTISRDNAKNTVYLQMNSLKPEDTAVYYCNADVPSPAYYGDGTPYREDNYWGQGTQVTVSS,low polyreactivity
8,QVQLVESGGGLVQAGGSLPLSCAASGSTFTYYAMGWYRKAPGKEGELVARITWTGGRTYYADSVKGRFTISRGNAKNTVYLQMNSVKTEDTAVYYCNALPYFFETQYDYWGQGTQVTVSS,low polyreactivity
9,QVQLVESGGGLVQAGGSLRFSCAASGFIFYRNTMGWYRQAPGKEREFVAAIRWRGGSTYYADSVKGRFTISRDNAKNTVYLQMNSLKPEDTAVYYCAADTRPGYSGFVYWGQGTQVTVSS,high polyreactivity
10,QVQLVESGGGLVQAGGSLRFSCAASGFIFYYYDMGWYRQAPGKERELVATISRGGSTYYADSVKGRFTISRDNAKNTVYLQMNSLKPEDTAVYYCAAYRSFGYRNWNRFDYWGQGTQVTVSS,high polyreactivity
11,QVQLVESGGGLVQAGGSLRFSCAASGFTFSHYAMGWYRQAPGQERELVAAITWSGGSTYYADSVKGRFTISRDNEKNTVYLQLNSVKPEDTAVYYCAAESYRDGVDYWGQGTQVTVSS,high polyreactivity
12,QVQLVESGGGLVQAGGSLRFSCAASGFTFYEYAMGWYRQAPGKERELVAAINWNGGRTYYADSVKGRFTISRDNAKNTVYLQMNSLKPEDTAVYYCAARVAPKTKISRRYYWGQGTQVNVSS,high polyreactivity
13,QVQLVESGGGLVQAGGSLRFSCAASGFTFYVYAMGWYRHAPGKERELVAAISKSGGSTYYSDSVKGRFTISRDNAKNTVYLQMNSLKPEDTAVYYCAVYDKRSGYRGGHRYNSWGQGTQVTVSS,high polyreactivity
14,QVQLVESGGGLVQAGGSLRFSCAASGFTLQQYTMGWYRQAPGKERELVAAISTSGVRTYYADSVKGRFTISRDNAKNTVYLQMNSLKPEDTAVYYCNAAWVYGIGWYSGYDYWGQGTQVTVSS,high polyreactivity
15,QVQLVESGGGLVQAGGSLRFSCAASGLYYYAMGWYRQAPGKERALVAVITYSGGSTYYADSVKGRFTISRDNGKNSVYLQMNSLKPEDTAVYNCAAEDYYVALPGLYDYWGQGTQVTVSS,low polyreactivity
16,QVQLVESGGGLVQAGGSLRFSCAASGNIFVVYTMGWDRQAPGKERELVADITSIGTSTYYADSVKGRFTISRDNAKNTVYLQMNSLKPEDTAVYYCNKDGSVWGKYTEYYWGQGTQVTVAS,low polyreactivity
17,QVQLVESGGGLVQAGGSLRFSCAASGRIIEQNAMGWYIQAPGKERELVATITRRGGRTYYADSVKGRFTISRDNAKNTVYLQMNSLKPEDTAVYYCNQVSYARGYDYWGQGTQVTVSS,high polyreactivity
18,QVQLVESGGGLVQAGGSLRFSCAASGRTFRYYAMRWYRQAPGKERELVADISSTGRTYYADSVKGRFTISRDNAKNTVYLQMNSLNPEDSAVYYCAADYYSTYRTIYYYWGQGTQVSVSS,low polyreactivity
19,QVQLVESGGGLVQAGGSLRFSCAASGSIFDIYGMGWYRQAPGKESELVASISGGAGSTNYADSVKGRFTISRDYAKNTVYLQMNSLKPEDTAVYYCAAVCADPTEYDYWGQGTQVTVSS,low polyreactivity
20,QVQLVESGGGLVQAGGSLRFSCAASGSTFGFNAMGWYRQAPGKERELLPLFWSGGSTYYADSVNGRFTISRDNAKNSVYLQMNSLKPDDTAVYYCNKDSTPITRYDYWGQGTQVTVSS,low polyreactivity
21,QVQLVESGGGLVQAGGSLRFSCAASGSTFIGYDMGWYRQEPGKERELVAAISYSDGTYYAESVKGRFTISRDNAKNTVYLQMNSLNPEDTAVYYCAADSLYYRYDYWGQGTQVTVSS,low polyreactivity
22,QVQLVESGGGLVQAGGSLRFSCAASGSTFVYYGMGWDRQAPGKERELVAAITDIGDSTNYADSVKGRFTISRDNAKNTVYLQMNSLKPEDTAVYYCAASGRSVPYYGSPRNDYWGQGTQVTVSS,low polyreactivity

row,Sequence,polyreactivity (PSR sort gate)
1,QVQLVESGGGLVQAGGSLRFSCAASGSTTYRYAMGWYRQAPGKERELVAAISSRGGSTYYADSVKGRFTISRDNAKNTVYLQMNSLKPEDTAVYYCAVKDRYSFRYDYWGQGTQVTVSS,high polyreactivity
2,QVQLVESGGGLVQAGGSLRFSCAASGYIFYKYAMGWYRHAPGKERELVAAIRRSGGSTYYADSVKGRFTISRDNAKNTVYLQMNSLKPEDTAVYYCAARYFRGSYPMGYWGQGTQVTVSS,high polyreactivity
3,QVQLVESGGGLVQAGGSLRFSCAAYGFIFTQYAMGCYRRAPGKERELVAAISWNGGRTYYADSVNGRFTISRDNEKNTVYLQMNSLKPEDTAVYYCAARIYLSKSFNYWGQGTQVTVSS,high polyreactivity
4,QVQLVESGGGLVQAGGSLRFSSAASGSIFGTYVMGWYRQAPGKERELVAAISWSGGSTYYADSVKGRFTISRDNAKNTVYLQMNSLKPEDTAVYYCAADSIRFEYEYWGQGTQVTVSS,high polyreactivity
5,QVQLVESGGGLVQAGGSLRFSWAASGFIFRSNAMGWYRQAPGKERELVAAISKSGGSTYYADSVKGRFTISRDTAKKTVYLQMNSLKPEDTAVYYCFVDYYPYDYWGQGTQVTVSS,low polyreactivity
6,QVQLVESGGGLVQAGGSLRIICAASGRTFDRYAMRGYRQAPGKERELVAASTRRGTTTYYADSVKVRFSISRDYAKNTVYLQMYSLKPEDTAVYYCAAKRGCVSRPDYGANDESWGQGTQVTVSS,high polyreactivity
7,QVQLVESGGGLVQAGGSLRIICAASGSIFARNAMGWYRQAPGKERELVASITWSGASTYDADSVKGRFTISRDNAMNTVYLQMNSLKPEDTAVYYCAATDQILSLDYSSYEYLGQGTQVTVSS,low polyreactivity
8,QVQLVESGGGLVQAGGSLRISCAASGCTFSFNAMGWYRPAPGKERELVAAITTADSTYYADSVKGRFTISRDNAKNTGYFQMNSLKPEDTAVYYCAADAYWEYDYWGQGTQVTVSS,low polyreactivity
9,QVQLVESGGGLVQAGGSLRISCAASGFICPQNTMGWYRQAPGTERELVAAITSCGSTYYADSVKGRFTISRDNGKNTVYLQMNSLKPEDTAVYYCAARPYGNWTYGYWGQGTQVTVSS,low polyreactivity
10,QVQLVESGGGLVQAGGSLRISCAASGFIFDGYAMGWYRQAPGKERELVAAITYSGGSTYYADSLKGRFTISRDNAKNTVYLQMNRLKPEDTAVYYCNAEYSSFSVVQKDSDMDYWGQGTQVTVSS,low polyreactivity
11,QVQLVESGGGLVQAGGSLRISCAASGFIFRYYTMGWYRQAPGKERELVATITSGGSTYYADSVKGRFTISRDNAKNTVYLQMNSLKPEDTAVYYCAKVRDVLWRFNYWGQGTEVTVSS,high polyreactivity
12,QVQLVESGGGLVQAGGSLRISCAASGFIFTRYVMGWYSQAPGKERELVAGISTRGARTYYADSVKGRFTISRDNAKNTVYLQMNSLKPEDTAVYYCAKDYYKHYYWGQGTQVTVSS,high polyreactivity
13,QVQLVESGGGLVQAGGSLRISCAASGFIYTRYTMGWYRQAPGKERELVAVINSSGGSTYYADSVKGRFTISRDNAKNTVYLQMNSLKPEDTAVYYCNALSRYRIWSYGYWGPGTQVTVSS,high polyreactivity
14,QVQLVESGGGLVQAGGSLRISCAASGFTFFSNAMGWYRKAPGKERELVAAITSSGGSTYADTVKGRFTISRDNAKNTVYLQMNRLKPEDTAVYYCAADAQAPPGGFKEYDYWGQGTQVTVSS,low polyreactivity
15,QVQLVESGGGLVQAGGSLRISCAASGFTFGPYDMGWYRQAPGKERELVAAITDSSGSTHYADSVKGRFTISRDNAKNTVYFQMNSLKPEDTAVYTCAADDSSRTTYYYWGQGTEVTVSS,low polyreactivity
16,QVQLVESGGGLVQAGGSLRISCAASGFTFGRYAMGWYRQAPGKEREFVASISARGGNTFYADSVKGRFTISRDNAKNTVYLQMTSLKPEDTAVYYCNALTYFKRSEYYWGQGTQVTVSS,high polyreactivity
17,QVQLVESGGGLVQAGGSLRISCAASGFTFSLNGMGWYRQAPGKEREMVAAIRSGGSTNYADSVKGRFTISLDNAKYTVYIQMNSLKPEDTAVYYCATDIHSVHNNRDKHDYDYLGQGTQVTVSS,low polyreactivity
18,QVQLVESGGGLVQAGGSLRISCAASGFTFYIYAMGWYRQAPGKERELVAAISARGGSTYYADSVKGRFTISRDNAKNTVYLQMNSLKPEDTAVYYCNALYNYAEIYGRGYWGLGTQVTVSS,high polyreactivity
19,QVQLVESGGGLVQAGGSLRISCAASGFTLRVNAMGWYRQAPGKERELVAAISDSGGDTYYSNSVKGRFTISRDNAKNTVYLQMNSLKPEDTAVYYCAADDGSENDYWGQGTQVTVSS,low polyreactivity
20,QVQLVESGGGLVQAGGSLRISCAASGGIFFQNAMGWYRQAPGKERELVAAISWSAGSTYYADSVKGRFTISRDNAKNSVDLQMNRQKPEDTAVDSCAGRVGCGRAIDLYYYWGQGTQVTVSS,low polyreactivity
21,QVQLVESGGGLVQAGGSLRISCAASGGTFQPYAMGWYRQAPGKERELVAAITSSDGSTYYADSVKWRFTISRDNAKNTVYLQMNSLKPEDTAVYYCNATIASGYGDRYVDTSHDYWGQGTQVTVSS,low polyreactivity
